Laboratory results published in paper PMC10625714 (Nature chemical biology, 2023).

Target: the molecule itself
Experiment: cryo-EM structure

B1: nuclease-deficient AsCas12f (AsCas12f-D225A) (enzyme, Acidibacillus sulfuroxidans)
chain: MIKVYRYEIVKPLDLDWKEFGTILRQLQQETRFALNKATQLAWEWMGFSSDYKDNHGEYPKSKDILGYTNVHGYAYHTIKTKAYRLNSGNLSQTIKRATDRFKAYQKEILRGDMSIPSYKRDIPLDLIKENISVNRMNHGDYIASLSLLSNPAKQEMNVKRKISVIIIVRGAGKTIMDRILSGEYQVSASQIIHDDRKNKWYLNISYDFEPQTRVLDLNKIMGIALGVAVAVYMAFQHTPARYKLEGGEIENFRRQVESRRISMLRQGKYAGGARGGHGRDKRIKPIEQLRDKIANFRDTTNHRYSRYIVDMAIKEGCGTIQMEDLTNIRDIGSRFLQNWTYYDLQQKIIYKAEEAGIKVIKIDPQYTSQRCSECGNIDSGNRIGQAIFKCRACGYEANADYNAARNIAIPNIDKIIAESIK
stoichiometry N: 2
